The target in data set [1] is Hfq wild-type (Escherichia coli) (UniProt P0A6X3). Briefly: BLI. To be noted: BLI: 25 mM Tris pH 7.5, 50 mM NaCl, 50 mM KCl, 1 mM MgCl2, 1 mM DTT, 0-500 nM Hfq, temperature not stated, EMSA: 1x structure buffer, 1 ug yeast RNA, 37 C …. For orientation: In EMSA bound probe runs differently from free probe, usually more slowly.
In data set [2] the test system is Hfq66. Briefly: BLI. The conditions noted are these: 1 uM RydC; BLI: 25 mM Tris pH 7.5, 50 mM NaCl, 50 mM KCl, 1 mM MgCl2, 1 mM DTT, 0-500 nM Hfq, temperature not stated; EMSA: 1x structure buffer, 1 ug yeast RNA, 37 C …; scale: fold lower affinity than without RydC.
Data set [3] addresses Hfq66 (UniProt P0A6X3). Briefly: BLI. To be noted: BLI: 25 mM Tris pH 7.5, 50 mM NaCl, 50 mM KCl, 1 mM MgCl2, 1 mM DTT, 0-500 nM Hfq, temperature not stated; EMSA: 1x structure buffer, 1 ug yeast RNA, 37 C ….
Data set [4] has as its target HfqRim R19A;P21A;Q33A;Q35A;T49A;R66A (UniProt P0A6X3). Briefly: BLI. To be noted: BLI: 25 mM Tris pH 7.5, 50 mM NaCl, 50 mM KCl, 1 mM MgCl2, 1 mM DTT, 0-500 nM Hfq, temperature not stated; EMSA: 1x structure buffer, 1 ug yeast RNA, 37 C ….
Data set [5] addresses Hfq wild-type (Escherichia coli) (UniProt P0A6X3). Briefly: EMSA. To be noted: BLI: 25 mM Tris pH 7.5, 50 mM NaCl, 50 mM KCl, 1 mM MgCl2, 1 mM DTT, 0-500 nM Hfq, temperature not stated; EMSA: 1x structure buffer, 1 ug yeast RNA, 37 C ….
Data set [6] shares this target. Briefly: competition. To be noted: BLI: 25 mM Tris pH 7.5, 50 mM NaCl, 50 mM KCl, 1 mM MgCl2, 1 mM DTT, 0-500 nM Hfq, temperature not stated; EMSA: 1x structure buffer, 1 ug yeast RNA, 37 C ….
Data set [7] has the same target. Briefly: X-ray crystallography. The conditions noted are these: BLI: 25 mM Tris pH 7.5, 50 mM NaCl, 50 mM KCl, 1 mM MgCl2, 1 mM DTT, 0-500 nM Hfq, temperature not stated; EMSA: 1x structure buffer, 1 ug yeast RNA, 37 C ….

In data set [1] (1 uM RydC), cfa1 showed a binding signal (fold lower affinity than without RydC) of 5. The substance further registered a binding signal in the data set with Hfq66 [2] of 100.

Turning to “GGUUGUUUAUAUUACGAUAAUUAUUAGGCAUUAACGGGAACCGGAGCGUUCCCGAUUCACCAUGGAUGGCCUUUUCGGCAAGGGCUCCUCCCUUCCUCUGUUCUACGUCGGAUAACUGGCUCACGGAAUUGUCCGUGGG [cfa1]”, the Kd result in data set [1] and in data set [4] was “binds” throughout. The binding entry with Hfq66 [3] was “binds”.

As to “GGUUCCGAUGUAGACCCGUCCUCCUUCGCCUGCGUCACGGGUCCUGGUUAGACGCAGGCGUUUUCU [RydC (EMSA transcript)]”, the binding result in data set [5] and in data set [6] was “binds” throughout.

Consider “GGCUUCCGAUGUAGACCCGUCCUCCUUCGCCUGCGUCACGGGUCCUGGUUAGACGCAGGCGUUUUCUG [RydC (crystal)]”, for which, in data set [7], the binding result is on record as “binds”.

Source of the values: paper PMC4337610.
